These results are taken from the supplement of paper PMC9112550, “Optimization of the antimicrobial peptide Bac7 by deep mutational scanning” (BMC Biology, 2022).

The data set deals with Escherichia coli TOP10. Put plainly: shrunken log2 fold change of peptide-encoding DNA abundance (4.5 h post-induction vs induction); higher = less antimicrobial activity (less host growth inhibition). The conditions noted are these: time post-induction: 4.5 h; library: site-saturation at positions 5, 18, 19, 20.
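Note: peptides expressed intracellularly from a pBAD plasmid library in pooled LB shake-flask culture, induced with 0.3% L-arabinose, DNA abundance read by NGS, three biological replicates, DESeq2 with apeglm shrinkage.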

As for RRIRERPPRLPRPRPRPLDMPRP, the “shrunken log2 fold change” value is -0.16.
Regarding RRIRHRPPRLPRPRPRPPDCPRP, the “shrunken log2 fold change” value was determined as 0.182.
With RRIRFRPPRLPRPRPRPLYQPRP, the “shrunken log2 fold change” value was -0.374.
As to RRIRMRPPRLPRPRPRPPIWPRP, the “shrunken log2 fold change” value was determined as 0.512.
On to RRIRSRPPRLPRPRPRPNSYPRP, for which the “shrunken log2 fold change” value was -0.00251.
On to RRIRCRPPRLPRPRPRPSRGPRP, for which the “shrunken log2 fold change” value was determined as 0.333.
With RRIRPRPPRLPRPRPRPQNKPRP, the “shrunken log2 fold change” value was -0.479.
As to RRIRNRPPRLPRPRPRPAYMPRP, the “shrunken log2 fold change” value was -0.119.
For RRIRMRPPRLPRPRPRPCATPRP the value was 2.58; for RRIRVRPPRLPRPRPRPGADPRP, 0.163.
The result for RRIRRRPPRLPRPRPRPYPHPRP reads -0.181; that for RRIRSRPPRLPRPRPRPAFAPRP, 0.414.
With RRIRKRPPRLPRPRPRPSLTPRP, the “shrunken log2 fold change” value is -0.0632.
For RRIRNRPPRLPRPRPRPHWMPRP the value was -0.0835; for RRIRGRPPRLPRPRPRPKTIPRP, 0.445.
The result for RRIRLRPPRLPRPRPRPAYPPRP reads 0.283; that for RRIRERPPRLPRPRPRPDEAPRP, 0.323.
As for RRIRGRPPRLPRPRPRPAKVPRP, the “shrunken log2 fold change” value was 0.431.
For RRIRYRPPRLPRPRPRPDTAPRP the value was -0.343.
For RRIRTRPPRLPRPRPRPAMCPRP the value was 0.131; for RRIRDRPPRLPRPRPRPMTKPRP, -0.0341; for RRIRARPPRLPRPRPRPQHKPRP, 0.292.
On to RRIRPRPPRLPRPRPRPHYLPRP, for which the “shrunken log2 fold change” value was -0.906.
For RRIRPRPPRLPRPRPRPKNTPRP, the “shrunken log2 fold change” value was -0.218.
Take RRIRMRPPRLPRPRPRPSRFPRP: the “shrunken log2 fold change” value was determined as 0.253.
The result for RRIRKRPPRLPRPRPRPHKLPRP reads 0.00078; that for RRIRYRPPRLPRPRPRPWQNPRP, -0.103.
Turning to RRIRSRPPRLPRPRPRPEQQPRP, the “shrunken log2 fold change” value stood at 0.0303.
The result for RRIRMRPPRLPRPRPRPHGTPRP reads 0.148; that for RRIRIRPPRLPRPRPRPYMIPRP, -0.307.
As for RRIRARPPRLPRPRPRPHNSPRP, the “shrunken log2 fold change” value amounted to 1.18.
In the case of RRIRARPPRLPRPRPRPFVQPRP, the “shrunken log2 fold change” value was -0.00645.
For RRIRTRPPRLPRPRPRPDPYPRP the value was 0.001.
For RRIRFRPPRLPRPRPRPKPGPRP the value was 0.446.
Turning to RRIRPRPPRLPRPRPRPKHSPRP, the “shrunken log2 fold change” value is -0.155.
For RRIRQRPPRLPRPRPRPAYFPRP, the “shrunken log2 fold change” value turned out to be 0.191.
For RRIRGRPPRLPRPRPRPWACPRP the value was 0.216.
For the sequence RRIRTRPPRLPRPRPRPMWCPRP, the “shrunken log2 fold change” value was -0.172.
The result for RRIRKRPPRLPRPRPRPEECPRP reads 0.00489.
For the sequence RRIRQRPPRLPRPRPRPSMPPRP, the “shrunken log2 fold change” value is -0.0542.
As to RRIRARPPRLPRPRPRPVGRPRP, the “shrunken log2 fold change” value was 0.691.
Consider RRIRTRPPRLPRPRPRPKIKPRP, for which the “shrunken log2 fold change” value is -0.561.
For RRIRARPPRLPRPRPRPILHPRP the value was -0.0341; for RRIRSRPPRLPRPRPRPGCFPRP, 0.225.
As to RRIRNRPPRLPRPRPRPWEEPRP, the “shrunken log2 fold change” value was -0.00133.
Consider RRIRCRPPRLPRPRPRPSYEPRP, for which the “shrunken log2 fold change” value is -0.374.
On to RRIRYRPPRLPRPRPRPTLMPRP, for which the “shrunken log2 fold change” value is -0.301.
As for RRIRCRPPRLPRPRPRPNSCPRP, the “shrunken log2 fold change” value is -0.394.
In the case of RRIRGRPPRLPRPRPRPAGLPRP, the “shrunken log2 fold change” value was found to be 0.479.
In the case of RRIRTRPPRLPRPRPRPMWTPRP, the “shrunken log2 fold change” value is -0.00193.
For RRIRLRPPRLPRPRPRPTMFPRP the value was -0.0861.
Regarding RRIRWRPPRLPRPRPRPLHEPRP, the “shrunken log2 fold change” value came to 0.148.
On to RRIRFRPPRLPRPRPRPPFPPRP, for which the “shrunken log2 fold change” value worked out at 0.454.
In the case of RRIRTRPPRLPRPRPRPSYCPRP, the “shrunken log2 fold change” value was determined as 0.0739.
Consider RRIRGRPPRLPRPRPRPYQKPRP, for which the “shrunken log2 fold change” value is -0.00887.
The result for RRIRGRPPRLPRPRPRPDRVPRP reads 0.311.
For RRIRIRPPRLPRPRPRPCYPPRP the value was -0.428; for RRIRYRPPRLPRPRPRPVKAPRP, -0.0854; for RRIRSRPPRLPRPRPRPVSAPRP, 2.53.
Regarding RRIRTRPPRLPRPRPRPTAAPRP, the “shrunken log2 fold change” value came to 0.211.
On to RRIRFRPPRLPRPRPRPVDVPRP, for which the “shrunken log2 fold change” value is -0.44.
Turning to RRIRPRPPRLPRPRPRPDWFPRP, the “shrunken log2 fold change” value came out at 0.0805.
Consider RRIRERPPRLPRPRPRPNPKPRP, for which the “shrunken log2 fold change” value is -0.0343.
For RRIRLRPPRLPRPRPRPNSYPRP the value was -0.3.
In the case of RRIRWRPPRLPRPRPRPSPVPRP, the “shrunken log2 fold change” value was -0.0363.
For RRIRHRPPRLPRPRPRPDLPPRP the value was 0.107; for RRIRKRPPRLPRPRPRPAVLPRP, -0.025.
As to RRIRSRPPRLPRPRPRPSYFPRP, the “shrunken log2 fold change” value was -0.687.
With RRIRCRPPRLPRPRPRPMMFPRP, the “shrunken log2 fold change” value came to 0.312.
Turning to RRIRERPPRLPRPRPRPVPSPRP, the “shrunken log2 fold change” value is -0.0655.
As to RRIRYRPPRLPRPRPRPDGKPRP, the “shrunken log2 fold change” value was -0.01.
Consider RRIRFRPPRLPRPRPRPFFRPRP, for which the “shrunken log2 fold change” value was -0.213.
For the sequence RRIRPRPPRLPRPRPRPHRKPRP, the “shrunken log2 fold change” value was -0.0741.
Take RRIRWRPPRLPRPRPRPDCRPRP: the “shrunken log2 fold change” value worked out at 0.0695.
Consider RRIRQRPPRLPRPRPRPNVLPRP, for which the “shrunken log2 fold change” value is -0.0544.
Consider RRIRWRPPRLPRPRPRPADQPRP, for which the “shrunken log2 fold change” value stood at 0.0591.
With RRIRKRPPRLPRPRPRPTWGPRP, the “shrunken log2 fold change” value is 0.317.
With RRIRERPPRLPRPRPRPNWDPRP, the “shrunken log2 fold change” value was -0.125.
Turning to RRIRHRPPRLPRPRPRPPHEPRP, the “shrunken log2 fold change” value came out at 0.181.
Consider RRIRHRPPRLPRPRPRPELGPRP, for which the “shrunken log2 fold change” value was -0.101.
For RRIRVRPPRLPRPRPRPIIWPRP, the “shrunken log2 fold change” value is -0.098.
RRIRRRPPRLPRPRPRPQSSPRP: the “shrunken log2 fold change” value was -0.0217.
Turning to RRIRERPPRLPRPRPRPRMFPRP, the “shrunken log2 fold change” value was found to be 0.00669.
For RRIRNRPPRLPRPRPRPVFYPRP the value was -0.19.
The result for RRIRTRPPRLPRPRPRPLCMPRP reads -0.385.
On to RRIRSRPPRLPRPRPRPGVRPRP, for which the “shrunken log2 fold change” value is -0.0323.
On to RRIRKRPPRLPRPRPRPRMQPRP, for which the “shrunken log2 fold change” value is 0.622.
For RRIRLRPPRLPRPRPRPALIPRP the value was -0.00882; for RRIRARPPRLPRPRPRPWMEPRP, -0.0866.
For RRIRWRPPRLPRPRPRPMSYPRP, the “shrunken log2 fold change” value is -0.206.
In the case of RRIRHRPPRLPRPRPRPMTWPRP, the “shrunken log2 fold change” value was found to be 0.148.
